# Reference: paper PMC3298750 (Nature immunology, 2011)
# Non-standard residues stand in square brackets, D forms with d. No end group written: not given here. pS = N[C@@H](COP(=O)(O)O)C(=O)O
# Target: 15N-WW domain of Pin1 (tag removed) (UniProt Q13526 5-39, 15N-labelled)
# Experiment: NMR titration
# 15N-WW domain of Pin1 (tag removed), sequence (Q13526 5-39): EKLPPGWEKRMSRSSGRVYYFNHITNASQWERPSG
row,Binder,Kd [µM]
1,ELGLVPSPASLWPPPP[pS]PAPSSTK [IRAK1 phosphopeptide 157-180 (pSer173-P174)],260 ± 75
2,EAEAW[pS]PRKLP [IRAK1 phosphopeptide 126-136 (pSer131-P132)],220 ± 15
3,STFL[pS]PAFPGS [IRAK1 phosphopeptide 140-150 (pSer144-P145)],120 ± 12
